The data set concerns the target T1, BSU Pol I (BSU polymerase) (Bacillus subtilis) (UniProt O34996).
T1 sequence: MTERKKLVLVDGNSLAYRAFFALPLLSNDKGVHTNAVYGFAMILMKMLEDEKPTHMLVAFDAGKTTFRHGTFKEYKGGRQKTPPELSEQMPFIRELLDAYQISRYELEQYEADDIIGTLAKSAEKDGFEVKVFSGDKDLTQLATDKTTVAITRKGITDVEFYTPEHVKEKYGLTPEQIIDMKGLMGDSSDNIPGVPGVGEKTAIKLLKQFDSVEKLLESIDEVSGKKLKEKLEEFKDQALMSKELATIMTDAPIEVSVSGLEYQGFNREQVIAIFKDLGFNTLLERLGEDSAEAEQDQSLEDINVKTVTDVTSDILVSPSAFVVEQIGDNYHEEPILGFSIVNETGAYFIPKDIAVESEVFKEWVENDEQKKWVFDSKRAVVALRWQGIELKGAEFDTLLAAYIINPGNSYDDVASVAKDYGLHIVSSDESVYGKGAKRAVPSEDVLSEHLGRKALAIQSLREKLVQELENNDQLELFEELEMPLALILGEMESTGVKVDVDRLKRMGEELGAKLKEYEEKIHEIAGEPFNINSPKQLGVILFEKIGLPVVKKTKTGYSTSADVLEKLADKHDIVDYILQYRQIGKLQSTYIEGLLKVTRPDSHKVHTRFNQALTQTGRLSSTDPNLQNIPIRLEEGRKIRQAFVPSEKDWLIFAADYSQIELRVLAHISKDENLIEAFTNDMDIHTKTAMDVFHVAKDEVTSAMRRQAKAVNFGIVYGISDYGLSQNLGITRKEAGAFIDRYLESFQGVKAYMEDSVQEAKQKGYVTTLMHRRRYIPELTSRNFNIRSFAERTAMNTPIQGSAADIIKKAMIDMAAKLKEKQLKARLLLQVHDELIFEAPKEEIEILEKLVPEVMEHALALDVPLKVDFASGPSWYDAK
Briefly: stopped-flow fluorescence quenching. The conditions noted are these: 375 mM NaCl, 10 mM MgSO4, fluorescein-modified thymidine in primer, five bases from the incorporation site, Stopped flow: 20 mM ACES pH 7.4, 62.5-325 mM NaCl (Methods; 375 mM in Results), 10 mM MgSO4, 1 uM acetylated BSA, 0.02% Tween-20, 1 mM TCEP, 600 nM enzyme ….

“GCTTGCACAGGGCCTCGAC / CGTTAGTAAGGTCGAGGCCCTGTGCAAGC [stopped-flow primer/template duplex]” had a binding signal (fold signal over mismatch) (correct nucleotide dCTP 100 uM) of 3.5. For the same sequence, the binding signal (reference signal (correct is 3.5-fold)) (mismatch nucleotide dATP) is 1.

These data come from publication PMC4354037.
